Earlier results in PMC5150220.

Target: sigma32 peptide 132-144 (Escherichia coli) (UniProt P0AGB3)

DnaK, sequence (P0A6Y8 2-638): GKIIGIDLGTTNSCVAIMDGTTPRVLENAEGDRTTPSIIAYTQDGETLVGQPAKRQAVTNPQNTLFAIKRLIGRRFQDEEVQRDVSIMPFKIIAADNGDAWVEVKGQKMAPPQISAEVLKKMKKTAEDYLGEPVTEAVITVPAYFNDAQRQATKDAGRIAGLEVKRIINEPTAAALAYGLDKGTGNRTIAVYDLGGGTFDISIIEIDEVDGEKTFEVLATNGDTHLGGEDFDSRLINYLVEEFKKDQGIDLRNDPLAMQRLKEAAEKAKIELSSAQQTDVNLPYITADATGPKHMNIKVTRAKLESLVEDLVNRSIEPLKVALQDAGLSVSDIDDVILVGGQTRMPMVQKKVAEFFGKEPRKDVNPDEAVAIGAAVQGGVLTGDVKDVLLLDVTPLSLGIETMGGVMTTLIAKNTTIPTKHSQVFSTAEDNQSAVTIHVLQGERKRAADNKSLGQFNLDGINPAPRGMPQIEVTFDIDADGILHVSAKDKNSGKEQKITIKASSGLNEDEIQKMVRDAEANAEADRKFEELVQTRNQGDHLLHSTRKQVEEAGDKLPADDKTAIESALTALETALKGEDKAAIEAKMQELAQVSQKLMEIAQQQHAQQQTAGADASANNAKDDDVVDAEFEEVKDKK

For DnaK (from UniProt P0A6Y8), the Kd is given as 78 nM.
